According to patent US10064928B2, “Peptides and combination of peptides for use in immunotherapy against CLL and other cancers” (IMMATICS BIOTECHNOLOGIES GMBH, priority 2015, dated 2018):

What follows are substances tested against HLA-A*02:01 (Homo sapiens, UniProt P04439, D140Y/D185E/D98H/E176V/E277Q/G131W/G231S/I119V/I121R/I166T/I218V/L300P/L318F/N151K/N90K/P208A/P217A/Q86G/Q94H/R138H/R169H/T345S) (assay: MHC binding assay (UV-ligand exchange, beta2m ELISA)). Conditions: binding of HLA-class I restricted peptides to HLA-A*02:01, β2m ELISA.
From the text: Candidate peptides for T cell based therapies according to the present invention were further tested for their MHC binding capacity (affinity). The individual peptide-MHC complexes were produced by UV-ligand exchange, where a UV-sensitive peptide is cleaved upon UV-irradiation, and exchanged with the peptide of interest as analyzed. Only peptide candidates that can effectively bind and stabilize the peptide-receptive MHC molecules prevent dissociation of the MHC complexes. To determine the yield of the exchange reaction, an ELISA was performed based on the detection of the light chain (β2m) of stabilized MHC complexes. The assay was performed as generally described in Rodenko et al. (Rodenko et al., 2006).
96 well MAXISorp plates (NUNC) were coated over night with 2 ug/ml streptavidin in PBS at room temperature, washed 4× and blocked for 1 h at 37° C. in 2% BSA containing blocking buffer. Refolded HLA-A*02:01/MLA-001 monomers served as standards, covering the range of 15-500 ng/ml. Peptide-MHC monomers of the UV-exchange reaction were diluted 100 fold in blocking buffer. Samples were incubated for 1 h at 37° C., washed four times, incubated with 2 ug/ml HRP conjugated anti-β2m for 1 h at 37° C., washed again and detected with TMB solution that is stopped with […]. Absorption was measured at 450 nm. Candidate peptides that show a high exchange yield (preferably higher than 50%, most preferred higher than 75%) are generally preferred for a generation and production of antibodies or fragments thereof, and/or T cell receptors or fragments thereof, as they show sufficient avidity to the MHC molecules and prevent dissociation of the MHC complexes.

| Peptide Exchange (MHC class I binding score, peptide exchange yield) | Substance |
| --- | --- |
| “++++” (≥75% = ++++) | 229 (FLLNLQNCHL; listed as Homo sapiens) [compound 229] |
| “++” (≥20% = ++) | 142 (QLDEPAPQV; listed as Homo sapiens) [compound 142] |
| “++++” (≥75% = ++++) | 36 (FILTHVDQL; listed as Homo sapiens) [compound 36] |
| “+++” (≥50 = +++) | 334 (YLLEEKIASL; listed as Homo sapiens) [compound 334] |
| “+++” (≥50 = +++) | 378 (YILGKFFAL; listed as Homo sapiens) [compound 378] |
| “+++” (≥50 = +++) | 350 (ALEDRVWEL; listed as Homo sapiens) [compound 350] |
| “+++” (≥50 = +++) | 10 (FVYGESVEL; listed as Homo sapiens) [compound 10] |
| “+++” (≥50 = +++) | 210 (KLLVQDFFL; listed as Homo sapiens) [compound 210] |
| “++++” (≥75% = ++++) | 134 (MLLEHGITLV; listed as Homo sapiens) [compound 134] |
| “+++” (≥50 = +++) | 209 (ILQAELPSL; listed as Homo sapiens) [compound 209] |
| “+++” (≥50 = +++) | 181 (VLLSIPFVSV; listed as Homo sapiens) [compound 181] |
| “+++” (≥50 = +++) | 133 (YLLSGDISEA; listed as Homo sapiens) [compound 133] |
| “+++” (≥50 = +++) | 111 (KLWNVAAPLYL; listed as Homo sapiens) [compound 111] |
| “++++” (≥75% = ++++) | 186 (VMDPTKILI; listed as Homo sapiens) [compound 186] |
| “++” (≥20% = ++) | 185 (VMDDQRDLI; listed as Homo sapiens) [compound 185] |
| “+++” (≥50 = +++) | 205 (GLSQANFTL; listed as Homo sapiens) [compound 205] |
| “+++” (≥50 = +++) | 258 (RLDYITAEI; listed as Homo sapiens) [compound 258] |
| “+++” (≥50 = +++) | 354 (FIMDDPAGNSYL; listed as Homo sapiens) [compound 354] |
| “++” (≥20% = ++) | 97 (LLFATQITL; listed as Homo sapiens) [compound 97] |

More lines, now with the values behind:

| Substance | Peptide Exchange (MHC class I binding score, peptide exchange yield) |
| --- | --- |
| 340 (KLLEEICNL; listed as Homo sapiens) [compound 340] | “++++” (≥75% = ++++) |
| 355 (FIWPMLIHI; listed as Homo sapiens) [compound 355] | “+++” (≥50 = +++) |
| 180 (LLKDGPEIGL; listed as Homo sapiens) [compound 180] | “++” (≥20% = ++) |
| 298 (IILPVEVEV; listed as Homo sapiens) [compound 298] | “+++” (≥50 = +++) |
| 27 (AVLGLVWLL; listed as Homo sapiens) [compound 27] | “+++” (≥50 = +++) |
| 113 (KVPAEEVLVAV; listed as Homo sapiens) [compound 113] | “+++” (≥50 = +++) |
| 161 (SMDDGMINV; listed as Homo sapiens) [compound 161] | “+++” (≥50 = +++) |
| 103 (KLGGTPAPA; listed as Homo sapiens) [compound 103] | “++” (≥20% = ++) |
| 251 (LLYDNVPGA; listed as Homo sapiens) [compound 251] | “+++” (≥50 = +++) |
| 105 (KLMNDIADI; listed as Homo sapiens) [compound 105] | “++” (≥20% = ++) |
| 71 (GLKHDIARV; listed as Homo sapiens) [compound 71] | “+++” (≥50 = +++) |
| 84 (GVMDVNTAL; listed as Homo sapiens) [compound 84] | “++” (≥20% = ++) |
| 126 (LLPEGGITAI; listed as Homo sapiens) [compound 126] | “+++” (≥50 = +++) |
| 369 (RLLDLENSLLGL; listed as Homo sapiens) [compound 369] | “+++” (≥50 = +++) |
| 228 (FLGGLSPGV; listed as Homo sapiens) [compound 228] | “+++” (≥50 = +++) |
| 289 (ILEEQPMDMLL; listed as Homo sapiens) [compound 289] | “+++” (≥50 = +++) |
| 364 (KMDWIFHTI; listed as Homo sapiens) [compound 364] | “+++” (≥50 = +++) |
| 168 (YLLDQSFVM; listed as Homo sapiens) [compound 168] | “++++” (≥75% = ++++) |
| 175 (FTVPRVVAV; listed as Homo sapiens) [compound 175] | “+++” (≥50 = +++) |
| 46 (YIIDSAQAV; listed as Homo sapiens) [compound 46] | “+++” (≥50 = +++) |
| 333 (VTLEFPQLIRV; listed as Homo sapiens) [compound 333] | “+++” (≥50 = +++) |

| Substance | Peptide Exchange (MHC class I binding score, peptide exchange yield) |
| --- | --- |
| 250 (LLVQEPDGLMV; listed as Homo sapiens) [compound 250] | “+++” (≥50 = +++) |
| 22 (ALWDPVIEL; listed as Homo sapiens) [compound 22] | “+++” (≥50 = +++) |
| 345 (YLIEPDVELQRI; listed as Homo sapiens) [compound 345] | “+++” (≥50 = +++) |
| 8 (ALAASALPALV; listed as Homo sapiens) [compound 8] | “+++” (≥50 = +++) |
| 147 (SILETVATL; listed as Homo sapiens) [compound 147] | “+++” (≥50 = +++) |
| 313 (LMADLEGLHL; listed as Homo sapiens) [compound 313] | “+++” (≥50 = +++) |
| 360 (HLIDTNKIQL; listed as Homo sapiens) [compound 360] | “+++” (≥50 = +++) |
| 169 (TLLLGLTEV; listed as Homo sapiens) [compound 169] | “+++” (≥50 = +++) |
| 199 (YLVELSSLL; listed as Homo sapiens) [compound 199] | “++++” (≥75% = ++++) |
| 66 (SLAGGLDDMKA; listed as Homo sapiens) [compound 66] | “+++” (≥50 = +++) |
| 73 (GLLEVISALQL; listed as Homo sapiens) [compound 73] | “+++” (≥50 = +++) |
| 377 (VVDGTCVAV; listed as Homo sapiens) [compound 377] | “+++” (≥50 = +++) |
| 363 (ITTEVVNELYV; listed as Homo sapiens) [compound 363] | “+++” (≥50 = +++) |
| 118 (RLLILENILL; listed as Homo sapiens) [compound 118] | “+++” (≥50 = +++) |
| 52 (FLVETGFLHV; listed as Homo sapiens) [compound 52] | “++++” (≥75% = ++++) |
| 179 (VLLGLEMTL; listed as Homo sapiens) [compound 179] | “+++” (≥50 = +++) |
| 16 (ALPGGAAVAAV; listed as Homo sapiens) [compound 16] | “++++” (≥75% = ++++) |
| 189 (VMLEMTPEL; listed as Homo sapiens) [compound 189] | “+++” (≥50 = +++) |
| 64 (KLLESVASA; listed as Homo sapiens) [compound 64] | “+++” (≥50 = +++) |
| 219 (ALLNLLESA; listed as Homo sapiens) [compound 219] | “+++” (≥50 = +++) |
| 303 (ILSQPTPSL; listed as Homo sapiens) [compound 303] | “+++” (≥50 = +++) |
